This is an account of results in the supplement of paper PMC7877785.

± gives the uncertainty stated by the source.

The nature of this data set: self-splicing fitness, log relative to wild type (ln ratio); higher = more splicing; Tetrahymena group I intron in knt gene, E. coli kanamycin selection, DiMSum; sequences stand for … in CUCUCU…GGAGGGAAAAGUUAUCAGGCAUGCACCUGGUAGCUAGUCUUUAAACCAAUAGAUUGCAUCGGUUUAAAAGGCAAGACCGUCAAAUUGCGGGAAAGGGGUCAACAGCCGUUCAGUACCAAGUCUCAGGGGAAACUUUGAGAUGGCCUUGCAAAGGGUAUGGUAAUAAGCUGACGGACAUGGUCCUAACCACGCAGCCAAGUCCUAAGUCAACAGAUCUUCUGUUGAUAUGGAUGCAGUUCACAGACUAAAUGUCGGUCGGGGAAGAUGUAUUCUUCUCAUAAGAUAUAGUCGGACCUCUCCUUAAUGGGAGCUAGCGGAUGAAGUGAUGCAACACUGGAGCCGCUGGGAACUAAUUUGUAUGCGAAAGUAUAUUGAUUAGUUUUGGAGUACUCGUGGUCG
The method in brief: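 Fitness was computed with DiMSum as the error-weighted combination of replicate fold changes, kanamycin versus none, each normalised to wild type. The library randomised all eight intron nucleotides of the P1ex region, with the intron placed in the knt kanamycin-resistance gene on pET-22b(+) in E. coli BL21(DE3). Six replicate transformations were grown overnight at 37°C or 30°C on LB agar with or without 25 μg/mL kanamycin, plus 100 μg/mL carbenicillin, 50 μM IPTG and 0.2% rhamnose. Pooled colonies were amplicon-sequenced on an Illumina HiSeq 2500.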

Turning to UCCAAGCAAUAUUACGACCC, the “self-splicing fitness (ln)” value is, setting by setting: (30 °C) -3.47 ± 0.22; (37 °C) -1.98 ± 0.17.
For AGGCAGCAAUAUUACGUCGC, the “self-splicing fitness (ln)” value was -2.48 ± 0.12 (30 °C) and -2.07 ± 0.14 (37 °C).
For the sequence GUGUAGCAAUAUUACGUAUU, the “self-splicing fitness (ln)” value was -1.25 ± 0.12 (30 °C) and -2.82 ± 0.22 (37 °C).
Taken in the same sequence, the figures for AAACAGCAAUAUUACGAAUU were -2.36 ± 0.11 and -1.2 ± 0.13.
For the sequence ACACAGCAAUAUUACGAUUC, the “self-splicing fitness (ln)” value is -1.96 ± 0.049 (30 °C) and -1.32 ± 0.072 (37 °C).
Taken in the same sequence, the figures for UACGAGCAAUAUUACGUAAC were -4.91 ± 0.41 and -3.7 ± 0.3.
On to UGAUAGCAAUAUUACGAGGG, for which, where the note is “37 °C”, the “self-splicing fitness (ln)” value is -2.38 ± 0.4.
Same read-out and setting: the value for GAUGAGCAAUAUUACGCCGG was -2.46 ± 0.45.
As to GUUCAGCAAUAUUACGGGUG, the “self-splicing fitness (ln)” value is -1.49 ± 0.09 (30 °C) and -0.763 ± 0.089 (37 °C).
Taken in the same sequence, the figures for UAGAAGCAAUAUUACGAAUU were -2.42 ± 0.46 and -1.29 ± 0.27.
Taken in the same sequence, the figures for UCAAAGCAAUAUUACGCUAG were -1.25 ± 0.076 and -1.29 ± 0.1.
On to GAUGAGCAAUAUUACGUACC, for which the “self-splicing fitness (ln)” value runs as follows: (30 °C) -0.53 ± 0.35; (37 °C) -1.77 ± 0.44.
For AAUUAGCAAUAUUACGUAAA, the “self-splicing fitness (ln)” value is -1.3 ± 0.11 (30 °C) and -0.736 ± 0.18 (37 °C).
On the same counts, the results for GGCAAGCAAUAUUACGGUUC are -0.000497 ± 0.07 and -0.268 ± 0.1.
Taken in the same sequence, the figures for AUCCAGCAAUAUUACGAAGG were -3.07 ± 0.2 and -2.8 ± 0.23.
On the same counts, the results for GGCAAGCAAUAUUACGCGGC are -3.13 ± 0.28 and -2.88 ± 0.41.
On to AGAAAGCAAUAUUACGAGGG, for which the “self-splicing fitness (ln)” value is -2.8 ± 0.21 (30 °C) and -2.61 ± 0.36 (37 °C).
On to UAGUAGCAAUAUUACGCGCU, for which the “self-splicing fitness (ln)” value (30 °C) was -1.46 ± 0.16 and the “self-splicing fitness (ln)” value (37 °C) is -0.161 ± 0.16.
On the same counts, the results for GCCGAGCAAUAUUACGAGUC are -1.86 ± 0.14 and -0.892 ± 0.16.
On the same counts, the results for GACAAGCAAUAUUACGGCAC are 0.362 ± 0.075 and -0.214 ± 0.11.
On to GUACAGCAAUAUUACGAGUA, for which the “self-splicing fitness (ln)” value (37 °C) is -2.65 ± 0.31.
For the sequence CAGUAGCAAUAUUACGUGGA, the “self-splicing fitness (ln)” value reads like this: (30 °C) -2.9 ± 0.26; (37 °C) -3.63 ± 0.42.
Taken in the same sequence, the figures for UGGCAGCAAUAUUACGGCUG were -3.05 ± 0.33 and -2.38 ± 0.46.
On the same counts, the results for CUCGAGCAAUAUUACGUAUC are -4.31 ± 0.3 and -2.78 ± 0.29.
On the same counts, the results for AUUCAGCAAUAUUACGUUCA are -1.07 ± 0.12 and -0.606 ± 0.13.
UAUGAGCAAUAUUACGCCGC: the “self-splicing fitness (ln)” value (30 °C) is -1.9 ± 0.31 and the “self-splicing fitness (ln)” value (37 °C) was -1.02 ± 0.42.
On the same counts, the results for ACAGAGCAAUAUUACGGGAG are -3.51 ± 0.28 and -1.62 ± 0.21.
In the case of AGGGAGCAAUAUUACGUAUA, the “self-splicing fitness (ln)” value (30 °C) is -3.19 ± 0.42.
UCUAAGCAAUAUUACGUAUC: the “self-splicing fitness (ln)” value is -4.13 ± 0.24 (30 °C) and -3.01 ± 0.21 (37 °C).
As to ACAGAGCAAUAUUACGGCGA, the “self-splicing fitness (ln)” value was -3.14 ± 0.31 (30 °C) and -1.17 ± 0.17 (37 °C).
On the same counts, the results for ACAUAGCAAUAUUACGGAAA are -2.14 ± 0.26 and -2.11 ± 0.2.
UACUAGCAAUAUUACGGAAC: the “self-splicing fitness (ln)” value was -3.78 ± 0.34 (30 °C) and -3.03 ± 0.32 (37 °C).
AUGGAGCAAUAUUACGUGGC: the “self-splicing fitness (ln)” value reads like this: (30 °C) -2.39 ± 0.29; (37 °C) -2.39 ± 0.38.
On the same counts, the results for GGCGAGCAAUAUUACGGGAC are -2.22 ± 0.2 and -1.1 ± 0.27.
Turning to AAGAAGCAAUAUUACGACCA, the “self-splicing fitness (ln)” value (30 °C) is -0.349 ± 0.1 and the “self-splicing fitness (ln)” value (37 °C) was -0.795 ± 0.2.
For GCUGAGCAAUAUUACGCGGC, the “self-splicing fitness (ln)” value (37 °C) was -1.22 ± 0.41.
As to CCUCAGCAAUAUUACGGUCA, the “self-splicing fitness (ln)” value is -3.48 ± 0.26 (30 °C) and -2.04 ± 0.15 (37 °C).
On the same counts, the results for UUAAAGCAAUAUUACGGGGG are -1.83 ± 0.13 and -2.16 ± 0.2.
On the same counts, the results for UCGCAGCAAUAUUACGCAGA are -3.72 ± 0.29 and -0.987 ± 0.12.
In the case of GAUGAGCAAUAUUACGUGGA, the “self-splicing fitness (ln)” value by setting is: (30 °C) -2.47 ± 0.21; (37 °C) -2.5 ± 0.22.
With AUACAGCAAUAUUACGUGAC, the “self-splicing fitness (ln)” value is, setting by setting: (30 °C) -1.57 ± 0.095; (37 °C) -0.945 ± 0.13.
Taken in the same sequence, the figures for CGACAGCAAUAUUACGCUGG were -3.13 ± 0.18 and -2.1 ± 0.17.
Taken in the same sequence, the figures for CAUGAGCAAUAUUACGGCGC were -3.56 ± 0.25 and -4.32 ± 0.36.
Taken in the same sequence, the figures for UUCCAGCAAUAUUACGAUUA were -0.297 ± 0.12 and -0.0509 ± 0.1.
Consider CCAAAGCAAUAUUACGGGCA, for which the “self-splicing fitness (ln)” value was -3.47 ± 0.19 (30 °C) and -2.86 ± 0.2 (37 °C).
As to GUGGAGCAAUAUUACGUAUA, the “self-splicing fitness (ln)” value (30 °C) is -2.7 ± 0.2.
Take GCAGAGCAAUAUUACGCAGA: the “self-splicing fitness (ln)” value is -2.78 ± 0.42 (30 °C) and -2.22 ± 0.34 (37 °C).
On the same counts, the results for UUUCAGCAAUAUUACGUGGC are -2.68 ± 0.15 and -2.94 ± 0.22.
Taken in the same sequence, the figures for CCGGAGCAAUAUUACGCGGA were -3.34 ± 0.23 and -2.74 ± 0.29.
For the sequence UCUCAGCAAUAUUACGUUAC, for the setting “37 °C”, the “self-splicing fitness (ln)” value was -1.86 ± 0.36.
Regarding ACAGAGCAAUAUUACGUAUU, the “self-splicing fitness (ln)” value is, setting by setting: (30 °C) -3.66 ± 0.23; (37 °C) -2.84 ± 0.27.
With UUAUAGCAAUAUUACGGACU, the “self-splicing fitness (ln)” value (30 °C) is -2.04 ± 0.35 and the “self-splicing fitness (ln)” value (37 °C) is -0.965 ± 0.23.
Taken in the same sequence, the figures for AGCUAGCAAUAUUACGCGUC were -4.28 ± 0.36 and -2.08 ± 0.23.
On the same counts, the results for UACAAGCAAUAUUACGAUUA are -0.0989 ± 0.079 and 0.278 ± 0.085.
Taken in the same sequence, the figures for CAGAAGCAAUAUUACGGUGG were -1.26 ± 0.067 and -1.12 ± 0.079.
In the case of UUAUAGCAAUAUUACGUCGG, the “self-splicing fitness (ln)” value is -1.58 ± 0.27 (30 °C) and -0.309 ± 0.24 (37 °C).
Take AACAAGCAAUAUUACGGUAU: the “self-splicing fitness (ln)” value (30 °C) is -1.61 ± 0.075 and the “self-splicing fitness (ln)” value (37 °C) is -1.16 ± 0.098.
On the same counts, the results for GUAAAGCAAUAUUACGUAGA are -2.33 ± 0.1 and -1.32 ± 0.12.
On to CAACAGCAAUAUUACGGGAU, for which the “self-splicing fitness (ln)” value is, setting by setting: (30 °C) -3.7 ± 0.15; (37 °C) -2.08 ± 0.15.
On the same counts, the results for UUCCAGCAAUAUUACGCGAA are -1.64 ± 0.079 and -0.865 ± 0.089.
On the same counts, the results for GGUCAGCAAUAUUACGACUC are -3.25 ± 0.24 and -1.61 ± 0.32.
Consider CAUAAGCAAUAUUACGGCCG, for which the “self-splicing fitness (ln)” value is, setting by setting: (30 °C) 0.39 ± 0.15; (37 °C) 0.125 ± 0.16.
Taken in the same sequence, the figures for UAAUAGCAAUAUUACGUCCU were -0.907 ± 0.19 and -0.798 ± 0.23.
Taken in the same sequence, the figures for CUCAAGCAAUAUUACGAUUU were -3.68 ± 0.21 and -2.4 ± 0.25.
In the case of UUUAAGCAAUAUUACGAGUA, the “self-splicing fitness (ln)” value was -1.72 ± 0.19 (30 °C) and -1.06 ± 0.19 (37 °C).
Taken in the same sequence, the figures for GUGAAGCAAUAUUACGGCCU were 0.395 ± 0.068 and 0.277 ± 0.085.
Taken in the same sequence, the figures for AGACAGCAAUAUUACGCGUA were -1.43 ± 0.084 and -0.867 ± 0.074.
Taken in the same sequence, the figures for CUCAAGCAAUAUUACGCUGU were -3.74 ± 0.21 and -1.59 ± 0.23.
For the sequence GGUCAGCAAUAUUACGUGAC, the “self-splicing fitness (ln)” value (30 °C) was -2.08 ± 0.17 and the “self-splicing fitness (ln)” value (37 °C) was -2 ± 0.24.
For the sequence UUUCAGCAAUAUUACGAUUG, the “self-splicing fitness (ln)” value by setting is: (30 °C) -0.724 ± 0.087; (37 °C) -0.057 ± 0.11.
On the same counts, the results for ACCUAGCAAUAUUACGAUAU are -1.58 ± 0.092 and -0.443 ± 0.12.
With UAGCAGCAAUAUUACGAAGU, the “self-splicing fitness (ln)” value is -1.64 ± 0.13 (30 °C) and -1.59 ± 0.3 (37 °C).
On the same counts, the results for GCUAAGCAAUAUUACGUCCG are -1.53 ± 0.13 and -0.712 ± 0.15.
AUCGAGCAAUAUUACGAGAA: the “self-splicing fitness (ln)” value (37 °C) is -2.44 ± 0.34.
On to AUAGAGCAAUAUUACGACUC, for which the “self-splicing fitness (ln)” value is, setting by setting: (30 °C) -0.707 ± 0.11; (37 °C) -0.0412 ± 0.15.
Taken in the same sequence, the figures for GUACAGCAAUAUUACGGGAU were -3.85 ± 0.15 and -2.59 ± 0.13.
On to GCGCAGCAAUAUUACGAAAG, for which the “self-splicing fitness (ln)” value was -2.66 ± 0.16 (30 °C) and -1.68 ± 0.14 (37 °C).
